Literature values as cited in PMC8961861.

Molecular target: Drebrin 1-300 (Homo sapiens) (UniProt Q16643)
Assay: NMR

Sequence of UniProt Q16643 (Q16643 1-300): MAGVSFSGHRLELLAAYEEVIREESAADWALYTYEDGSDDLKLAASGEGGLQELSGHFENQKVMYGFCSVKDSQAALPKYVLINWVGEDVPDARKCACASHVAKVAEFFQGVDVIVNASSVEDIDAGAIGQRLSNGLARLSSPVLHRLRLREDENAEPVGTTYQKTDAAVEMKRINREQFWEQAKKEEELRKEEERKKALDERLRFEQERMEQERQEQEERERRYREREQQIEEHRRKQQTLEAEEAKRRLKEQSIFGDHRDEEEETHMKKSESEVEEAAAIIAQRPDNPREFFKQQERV

- Kd: 300 µM
Substance: Cx43CT 236-382 (from UniProt P08050)
